# In article PMC4847859:
# Test system: CdpR (Pseudomonas aeruginosa PAO1)
# Experiment: EMSA
substance,measurement,value
pqsH-p (pqsH-cdpR intergenic region),K half,500 nM
